Laboratory results taken from the supplement of paper PMC9170038.

System: MS2 coat protein
Assay: apparent KD of MS2 coat protein; designed switch direction (-1 OFF switch, 1 ON switch): -1; higher = weaker reporter binding
Procedure, shortened: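 An oligonucleotide input, 200 uM small-molecule ligand, or no input was present during titration of SNAP-549-labelled MS2 coat protein, which was doubled from 0.7 or 1.5 nM to 3 µM. Designed RNA switches had been transcribed on Illumina chips by stalled E. coli RNA polymerase. Apparent KD per design is the median over clusters of curves fitted to normalised cluster fluorescence.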

[1] = Eterna round: R95, input ligand: FMN 200 uM
[2] = Eterna round: R95, input ligand: microRNA oligo, concentration not stated
[3] = Eterna round: R95, input ligand: none
[4] = input ligand: microRNA oligo, concentration not stated

Row | Sequence | apparent KD of MS2 coat protein (input ligand: FMN 200 uM) [nM] | apparent KD of MS2 coat protein (input ligand: none) [nM] | apparent KD of MS2 coat protein [2] [nM] | further results
1 | UUUAAGUCAGGAUAUACAUGAGGAUCACCCAUGUAAAAUUUUAAUUUAAUUUGAAGGUGUAGAAGGGACAAAUU [Ex3 #37] (Eterna round: R97, puzzle: Exclusion 3) | 23 | 24.6 |  | 
2 | UUUAAUUUUUUUUUUUUACAAGCUUUUUGCUCGUCUUAUACAUGAGGAUCACCCAUGUAAGUGGGAGAUAAAUUAUC [JMF 21] (puzzle: Sensor v3, turn-off variant 2) |  |  | 53.3 | apparent KD of MS2 coat protein [1]: 76.6 nM; apparent KD of MS2 coat protein [3]: 90.4 nM
3 | UUUAAUUUUUUUUUUUUACAAGCUUUUUGCUCGUCUUAUACAUGAGGAUCACCCAUGUAGGUGAAAAGUAAAUUAUC [JMF 45] (puzzle: Sensor v3, turn-off variant 2) |  |  | 82.1 | apparent KD of MS2 coat protein [1]: 15.8 nM; apparent KD of MS2 coat protein [3]: 20.8 nM
4 | UUUAAUUUUUUUUUUUUACAAGCUUUUUGCUCGUCUUAUACAUGAGGAUCACCCAUGUAGGUGAAAGGUAAAUUAUC [JMF 65] (puzzle: Sensor v3, turn-off variant 2) |  |  | 117 | apparent KD of MS2 coat protein [1]: 32 nM; apparent KD of MS2 coat protein [3]: 30.9 nM
5 | UUUAAUUUUUUUUUUUUACAAGCUUUUUGCUCGUCUUAUACAUGAGGAUCACCCAUGUGAAUGGAAGGUAAAUUAUC [JMF 68] (puzzle: Sensor v3, turn-off variant 2) |  |  | 18.4 | apparent KD of MS2 coat protein [1]: 17.3 nM; apparent KD of MS2 coat protein [3]: 20.4 nM
6 | UUUAAUUUUUUUUUUUUACAAGCUUUUUGCUCGUCUUAUACAUGAGGAUCACCCAUGUGAGUGGAGGGUAAAUUAUC [JMF 88] (puzzle: Sensor v3, turn-off variant 2) |  |  | 45.8 | apparent KD of MS2 coat protein [1]: 17.8 nM; apparent KD of MS2 coat protein [3]: 16.3 nM
7 | UUUAAUUUUUUUUUUUUACAAGCUUUUUGCUCGUCUUAUACAUGAGGAUCACCCAUGUGAGUGGGAGAUAAAUUAUC [JMF 22] (puzzle: Sensor v3, turn-off variant 2) |  |  | 213 | apparent KD of MS2 coat protein [1]: 98.2 nM; apparent KD of MS2 coat protein [3]: 170 nM
8 | UUUAAUUUUUUUUUUUUACAAGCUUUUUGCUCGUCUUAUACAUGAGGAUCACCCAUGUGGGUAAAAGGUAAAUUAUC [JMF 63] (puzzle: Sensor v3, turn-off variant 2) |  |  | 32.8 | apparent KD of MS2 coat protein [1]: 15.3 nM; apparent KD of MS2 coat protein [3]: 17.3 nM
9 | UUUAAUUUUUUUUUUUUACAAGCUUUUUGCUCGUCUUAUACAUGAGGAUCACCCAUGUGGGUGGAAGAUAAAUUAUC [JMF 12] (puzzle: Sensor v3, turn-off variant 2) |  |  | 75.1 | apparent KD of MS2 coat protein [1]: 113 nM; apparent KD of MS2 coat protein [3]: 134 nM
10 | UUUAGUUCAGGAUAUGUAGAUAUUAACAUGAGGAUCACCCAUGUCGAUCCUGAAUUAACUACAGAAGGGAACAUUU [Mod of Brourd 5 - Jieux - Exclusion 5] (Eterna round: R97, puzzle: Exclusion 5) | 69.6 | 17.8 |  | 
11 | UUUAGUUCAGGAUAUGUAGAUUUUAACAUGAGGAUCACCCAUGUGGAUCCUGAAUUAACUACAGAAGGGAACAUUU [Mod of Brourd 3 - Jieux - Exclusion 5] (Eterna round: R97, puzzle: Exclusion 5) | 294 | 43 |  | 
12 | UUUAUAUAUGAAGGAUAUACUUAACAUGAGGAUCACCCAUGUGGUGUUGUGAGUGAGUGAGUUUAGUAGAAGGUCAAUUCUUUU [JMF's solution 91] (Eterna round: R96, puzzle: Exclusion NG 2) | 731 | 362 |  | apparent KD of MS2 coat protein [4]: 335 nM
13 | UUUAUGUCAGGAUAUACAUGAGGAUCACCCAUGUAUAUCUAAAAAUAUACAUGGGUAUGUAGAAGGGACCUCCU [Omei Ex3 Pseudoloop 2] (Eterna round: R97, puzzle: Exclusion 3) | 52.6 | 146 |  | 
14 | UUUAUGUCAGGAUAUGAGUAGUAGAACAAUAGUACUACUACUCAGAAGGGACAUGAGGAUCACCCAUGUUCCUC [Fiskers Ex 4 Super stable 44 mod 20] (puzzle: Exclusion 4) |  |  | 16.7 | 
15 | UUUAUGUCAGGAUAUGAGUAGUAGAACAAUAGUACUACUACUCAGAAGGGACAUGAGGAUCACCCAUGUUCUUC [Fiskers Ex 4 Super stable 44 mod 23] (puzzle: Exclusion 4) |  |  | 16.3 | 
16 | UUUAUGUCAGGAUAUGAGUAGUAGAACAAUAGUACUACUACUCAGAAGGGACAUGAGGAUCACCCAUGUUUCUC [Fiskers Ex 4 Super stable 44 mod 24] (puzzle: Exclusion 4) |  |  | 22.6 | 
17 | UUUAUGUCAGGAUAUGAUUAGAUCUACUUCGGUAGAUCUAAUCAGAAGGGACAUGAGGAUCACCCAUGUAGUUU [Ex4 - 3 - 13] (Eterna round: R96, puzzle: Exclusion 4) | 671 | 180 |  | apparent KD of MS2 coat protein [4]: 137 nM
18 | UUUAUGUCAGGAUAUGAUUAGAUCUACUUCGGUAGAUCUAAUCAGAAGGGACAUGAGGAUCACCCAUGUAGUUU [Ex4 - 3 - 13] (puzzle: Exclusion 4) |  |  | 119 | 

Row | Sequence | apparent KD of MS2 coat protein (input ligand: FMN 200 uM) [nM] | apparent KD of MS2 coat protein (input ligand: none) [nM] | apparent KD of MS2 coat protein [2] [nM] | further results
19 | UUUAUUUUGCAAGGAUAUGUUUAAUUUUAGUUUCCUUAAACAUGAGGAUCACCCAUGUUAUACUUACAGAAGGUGCAUAAUUUU [JR_ExcNG2_Sub036] (Eterna round: R96, puzzle: Exclusion NG 2) |  |  |  | apparent KD of MS2 coat protein [4]: 73.3 nM
20 | UUUCGGCAUGUAGGAUAUGGAUCCGAUUAGGAUUUAGAAGGACAUGAGGAUCACCCAUGUGCAUUUAAUUGGUCAUUACCGUUU [EXclNG1-LROPPY08] (Eterna round: R96, puzzle: Exclusion NG 1) |  |  |  | apparent KD of MS2 coat protein [4]: 41.9 nM
21 | UUUCGGCAUGUAGGAUAUGGGUCCGAUUAGGAUUUAGAAGGACAUGAGGAUCACCCAUGUGCAUUUAAUUGGUCAUUACCGUUU [EXclNG1-LROPPY09] (Eterna round: R96, puzzle: Exclusion NG 1) | 86.7 | 66 |  | apparent KD of MS2 coat protein [4]: 47.8 nM
22 | UUUGAAUAAGUGAGGAUAUACUGUUAGUAAUGAUUGUAGAAGGUACAUGAGGAUCACCCAUGUUUAUUAUUUAU [JR_BME4_Sub039] (puzzle: Brourd's mod of Exclusion 4) |  |  | 20.7 | 
23 | UUUGACUAAGGAUAUCCUUUUGACCACAUGAGGAUCACCCAUGUAUUCCACAAGUGCGAAGGAGAAGGUGGGAAGG [Eternabot (L2) Solution 28] (Eterna round: R97, puzzle: Exclusion 5) | 65.6 | 56.1 |  | 
24 | UUUGCAAGCUAUAGAUCCCACAUGAGGAUCACCCAUGUUGCUGCCGUGAGGUAGCAUUUAACUAUUGCUCGUCUUAU [JL TOV1 3.51] (Eterna round: R97, puzzle: Sensor, turn-off variant 1) | 190 | 245 |  | 
25 | UUUGCAAGCUUAUGAUCCCACAUGAGGAUCACCCAUGUUGCUGCCGGUGACGGUAGCAUAACAUAUGCUCGUCUUAU [JL TOV1 3.63] (Eterna round: R97, puzzle: Sensor, turn-off variant 1) | 791 | 1170 |  | 
26 | UUUGUUUAUGUGAGGAUAUACUGUUUGUUUUGUUUGUAGAAGGUACAUGAGGAUCACCCAUGUUUUGUUUUUUU [JR_BME4_Sub033] (puzzle: Brourd's mod of Exclusion 4) |  |  | 21 | 
27 | UUUGUUUUGCAAGGAUAUGUUUAAUUUUAUUUUCCUUACACAUGAGGAUCACCCAUGUUAUACUUACAGAAGGUGCGUAAUUUG [Excl-NG2-LRO04] (Eterna round: R96, puzzle: Exclusion NG 2) |  |  |  | apparent KD of MS2 coat protein [4]: 165 nM
28 | UUUUAACAUGAGGAUCACCCAUGUGAGGAUAUCGAAAUUUAUAUUAAUAUUAAUUAUACGAGAAGGCACAUUUU [JMF 30] (puzzle: Exclusion 1) |  |  | 84 | 
29 | UUUUAACAUGAGGAUCACCCAUGUGAGGAUAUCGAAAUUUAUAUUUAUAUUAAUAAUACGAGAAGGCACAUUUU [JMF 78] (puzzle: Exclusion 1) |  |  | 57 | 
30 | UUUUAACAUGAGGAUCACCCAUGUGAGGAUAUCGAAAUUUAUAUUUAUAUUUAUAUAUCGAGAAGGCACAUUUU [JMF 96] (puzzle: Exclusion 1) |  |  | 118 | 
31 | UUUUAGAGAGGAUAUACAUUUUUUUAUUUAUUUAUAAUAUUACAUGAGGAUCACCCAUGUAGAAGGCUCAUUUU [My Design] (puzzle: Exclusion 2) |  |  | 25.8 | 
32 | UUUUAGUCAGGAUAUACAUGAGGAUCACCCAUGUAAAAUUUUAAUUUAAUUUUAAGGUGUAGAAGGGACAAUCC [Ex3 #12] (Eterna round: R97, puzzle: Exclusion 3) | 43.1 | 38.9 |  | 
33 | UUUUAGUGAGGAUAUACAUUUUUUUAAUUAUUUAUAAUAUUACAUGAGGAUCACCCAUGUAGAAGGCACAUUUU [My Design] (puzzle: Exclusion 2) |  |  | 27.4 | 
34 | UUUUCAUAUGAAGGAUAUACUUAACAUGAGGAUCACCCAUGUGGUGUUGUGAGUGAGUGAGUUUAGUAGAAGGUCAAUUCUUUU [JMF's solution 90] (Eterna round: R96, puzzle: Exclusion NG 2) | 613 | 351 |  | apparent KD of MS2 coat protein [4]: 277 nM
35 | UUUUGACAAGCGAGAUCCUACAUGAGGAUCACCCAUGUUGACCAUGGUUUCCAUGGUCUUUUUGCUCGUCUUGUGUG [jl TITIN mod 4] (Eterna round: R97, puzzle: Sensor, turn-off variant 1) | 21.5 | 21.8 |  | 
36 | UUUUGUCGUGACAUGGGUGACAUGAGGAUCACCCAUGUUACAAGCUUGUUGCUCGUCUUAUAAUUAACCCAUGUCAC [LRO Sensor-off var1-17 mod of Stov1-13-A1 by Brourd] (Eterna round: R97, puzzle: Sensor, turn-off variant 1) | 17.6 | 16.1 |  | 
